Measurements: patent publication US8895245

Tests used:
[1] = tested on: Chicken erythrocyte oligonucleosomes
[2] = tested on: Biotinylated histone H3:21-44 peptide containing monomethylated K27
[3] = tested on: Biotinylated histone H3:21-44 peptide containing dimethylated K27
[4] = tested on: Biotinylated histone H3:21-44 peptide containing unmethylated K27

Row | Substance | K (Km for nucleosome) [1] | K (K1/2, concentration of peptide resulting in half-maximal velocity) [2] | K (K1/2, concentration of peptide resulting in half-maximal velocity) [3] | K (K1/2, concentration of peptide resulting in half-maximal velocity) [4]
1 | Recombinant five-component PRC2 complex containing Y641N mutant EZH2 | 0.191 µM | 280 nM | 157 nM | –
2 | Recombinant five-component PRC2 complex containing Y641H mutant EZH2 | 0.14 µM | 319 nM | 148 nM | –
3 | Recombinant five-component PRC2 complex containing Y641F mutant EZH2 | 0.176 µM | 404 nM | 191 nM | 240 nM
4 | Recombinant five-component PRC2 complex containing Y641S mutant EZH2 | 0.137 µM | 249 nM | 136 nM | –
